Results reported in patent US20170304407.

Target: prothrombin

B1: oscutarin C (OsPA), Group C prothrombin activator purified from Oxyuranus scutellatus (Coastal Taipan) venom, preparation 17 Apr. 2012 (protein)
chain 1: ANSLYEEFRSGNIERECIEERCSKEEAREVFEDDEKTETFWNVYVDGDQCSSNPCHYRGTCKDGIGSYTCTCLSGYEGKNCERVLYKSCRVDNGNCWHFCKPVQNDIQCSCAEGYLLGEDGHSCVAGGNFSCGRNIKTRNKREASLPDFVQSQNAILLKKSDNPSPDIRIVNGMDCKLGECPWQAVLVDEKEDAFCGGTILSPIYVLTAAHCINQTKMISVVVGEINISRKNPGRLLSVDKIYVHQKFVPPKKGYEFYEKFDLVSYDYDIAILQMKTPIQFSENVVPACLPTADFANQVLMKQDFGIVSGFGRIFEKGPQSKTLKVLKVPYVDRHTCMLSSESPITPTMFCAGYDTLPRDACQGDSGGPHITAYRDTHFITGIVSWGEGCAQTGKYGVYTKVSKFILWIKRIMRQKLPSTESSTGRL
chain 2: AQLREYRLAAQLEDWDYNPQPEELSRLSESDLTFKKIVYREYELDFKQEKPRDELSGLLGPTLRGEVGDSLIIYFKNFATQPVSIHPQSAVYNKWSEGSSYSDGTSDVERLDDAVPPGQSFKYVWNITAEIGPKKADPPCLTYAYYSHVNMVRDFNSGLIGALLICKEGSLNADGAQKFFNREYVLMFSVFDESKNWYRKPSLQYTINGFANGTLPDVQACAYDHISWHLIGMSSSPEIFSVHFNGQTLEQNHYKVSTINLVGGASVTANMSVSRTGKWLISSLVAKHLQAGMYGYLNIKDCGNPDTLTRKLSFRERRRIMKWEYFIAAEEITWDYAPEIPSSVDRRYKAQYLDNFSNFIGKKYKKAVFRQYEDSNFTKPTYAIWPKERGILGPVIKAKVRDTVTIVFKNLASRPYSIYVHGVSVSKDAEGAVYPSDPKENITHGKAVEPGQVYTYKWTVLDTDEPTVKDSECITKLYHSAVDMTRDIASGLIGPPLVCKRKALSIRGVQNKADVEQHAVFAVFDENKSWYLEDNIKKYCSNPSSVKKDDPKFYKSNVMYTLNGYASDRTEVWGFHQSEVVEWHLTSVGTVDEIVPVHLSGHTFLSKGKHQDILNLFPMSGESATVTMDNLGTWLLSSWGSCEMSNGMRLRFLDANYDDEDEGNEEEEEDDGDIFADIFNPPEVVIKKEEVPVNFVPDPESDALAKELGLFDDEDNPKQSRSEQTEDDEEQLMIASMLGLRSFKGSVAEEELKHTALALEEDAHASDPRIDSNSAHNSDDIAGRYLRTINRRNKRRYYIAAEEVLWDYSPIGKSQVRSLPAKTTFKKAIFRSYLDDTFQTPSTGGEYEKHLGILGPIIRAEVDDVIEVQFRNLASRPYSLHAHGLLYEKSSEGRSYDDNSPELFKKDDAIMPNGTYTYVWQVPPRSGPTDNTEKCKSWAYYSGVNPEKDIHSGLIGPILICQKGMIDKYNRTIDIREFVLFFMVFDEEKSWYFPKSDKSTCEEKLIGVQSRHTFPAINGIPYQLQGLMMYKDENVHWHLLNMGGPKDVHVVNFHGQTFTEEGREDNQLGVLPLLPGTFASIKMKPSKIGTWLLETEVGENQERGMQALFTVIDKDCKLPMGLASGIIQDSQISASGHVGYWEPKLARLNNTGMFNAWSIIKKEHEHPWIQIDLQRQVVITGIQTQGTVQLLKHSYTVEYFVTYSKDGQNWITFKGRHSKTQMHFEGNSDGTTVKENHIDPPIIARYIRLHPTKFYNTPTFRIELLGCEVEGCSVPLGMESGAIKDSEITASSYKKTWWSSWEPFLARLNLKGRTNAWQPKVNNKDQWLQIDLQHLTKITSIITQGATSMTTSMYVKTFSIHYTDDNSTWKPYLDVRTSMEKVFTGNINSDGHVKHFFNPPILSRFIRIIPKTWNQYIALRIELFGCEVF
- rate of prothrombin activation in the S-2238 two-stage assay (thrombin produced against sampling time): (eg) (9.98e-6 umol/min)
- specific activity of the prothrombin activator (rate of thrombin production against OsPA concentration): (eg) (5.0e-3 units/mg)
